Data: patent publication US20230080865A1

Columns and labels:
[1] = molecular target: AEG::SOE3 chimeric recombinant protein; assay: ELISA, AEG::SOE3 coated on wells; reagent 1:1000
[2] = molecular target: AEG::SOE2 chimeric recombinant protein; assay: ELISA, AEG::SOE2 coated on wells; reagent 1:1000

## secondary peroxidase-conjugated goat anti-mouse IgG (antibody)
[1]
  ELISA signal: 0.111
[2]
  ELISA signal: 0.11
